According to article PMC7958122, “Insulin-Like Growth Factor Binding Protein-3 Exerts Its Anti-Metastatic Effect in Aerodigestive Tract Cancers by Disrupting the Protein Stability of Vimentin” (Cancers, 2021):

Biological target: T1, recombinant IGFBP-3 protein (rBP3) of the in vitro binding assays with vimentin domains (human, UniProt P17936 28-291)
T1 construct: IGFBP-3, human, recombinant protein; by the pull-down methods it may be the purified His-IGFBP-3; source: recombinant
Test: pull-down; in vitro binding: glutathione-agarose-bound GST-vimentin (full-length, domains or deletion mutants) incubated with purified recombinant IGFBP-3 or its C-terminal domain; TNE binding buffer, 4 °C; Western blot
Settings: both partners purified

T1 sequence (P17936 28-291): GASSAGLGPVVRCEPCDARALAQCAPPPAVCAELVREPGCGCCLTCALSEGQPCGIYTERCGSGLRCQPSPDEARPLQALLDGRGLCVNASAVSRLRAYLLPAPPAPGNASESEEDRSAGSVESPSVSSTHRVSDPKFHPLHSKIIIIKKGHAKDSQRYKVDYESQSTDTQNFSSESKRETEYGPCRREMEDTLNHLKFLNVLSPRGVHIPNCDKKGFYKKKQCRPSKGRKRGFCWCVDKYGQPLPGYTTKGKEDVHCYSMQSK

Row | binding result | Binder
1 | binds | GST-tagged head domain of vimentin (1-101 aa) (domain or fragment, human, UniProt P08670 1-101, looked up, vimentin, human, head domain, residues 1-101; source: bacterial expression (pGEX-4T-2), recombinant) MSTRSVSSSSYRRMFGGPGTASRPSSSRSYVTTSTRTYSLGSALRPSTSRSLYASSPGGVYATRSSAVRLRSSVPGVRLLQDSVDFSLADAINTEFKNTRT
2 | binds | GST-tagged vimentin coiled-coil domain deletion mutant ΔCC (1-101 linked with 411-467 aa) (domain or fragment, human, UniProt P08670 1-466, looked up, vimentin, human, head domain (1-101) ligated to tail domain (411-467 as printed); source: bacterial expression (pGEX-4T-2), recombinant) MSTRSVSSSSYRRMFGGPGTASRPSSSRSYVTTSTRTYSLGSALRPSTSRSLYASSPGGVYATRSSAVRLRSSVPGVRLLQDSVDFSLADAINTEFKNTRTISLPLPNFSSLNLRETNLDSLPLVDTHSKRTLLIKTVETRDGQVINETSQHHDDLE
